Test results taken from patent US20140274782A1, “AFFINITY REAGENTS AND METHODS FOR DETECTION, PURIFICATION, AND PROTEOMIC ANALYSIS OF METHYLATED PROTEINS” (The Board of Trustees of the Leland Stanford Junior …, priority 2013, published 2014).

T1: G9a and GLP (Homo sapiens, UniProt Q96KQ7+Q9H9B1)
T1 sequence (Q96KQ7 2-1210 limits assumed): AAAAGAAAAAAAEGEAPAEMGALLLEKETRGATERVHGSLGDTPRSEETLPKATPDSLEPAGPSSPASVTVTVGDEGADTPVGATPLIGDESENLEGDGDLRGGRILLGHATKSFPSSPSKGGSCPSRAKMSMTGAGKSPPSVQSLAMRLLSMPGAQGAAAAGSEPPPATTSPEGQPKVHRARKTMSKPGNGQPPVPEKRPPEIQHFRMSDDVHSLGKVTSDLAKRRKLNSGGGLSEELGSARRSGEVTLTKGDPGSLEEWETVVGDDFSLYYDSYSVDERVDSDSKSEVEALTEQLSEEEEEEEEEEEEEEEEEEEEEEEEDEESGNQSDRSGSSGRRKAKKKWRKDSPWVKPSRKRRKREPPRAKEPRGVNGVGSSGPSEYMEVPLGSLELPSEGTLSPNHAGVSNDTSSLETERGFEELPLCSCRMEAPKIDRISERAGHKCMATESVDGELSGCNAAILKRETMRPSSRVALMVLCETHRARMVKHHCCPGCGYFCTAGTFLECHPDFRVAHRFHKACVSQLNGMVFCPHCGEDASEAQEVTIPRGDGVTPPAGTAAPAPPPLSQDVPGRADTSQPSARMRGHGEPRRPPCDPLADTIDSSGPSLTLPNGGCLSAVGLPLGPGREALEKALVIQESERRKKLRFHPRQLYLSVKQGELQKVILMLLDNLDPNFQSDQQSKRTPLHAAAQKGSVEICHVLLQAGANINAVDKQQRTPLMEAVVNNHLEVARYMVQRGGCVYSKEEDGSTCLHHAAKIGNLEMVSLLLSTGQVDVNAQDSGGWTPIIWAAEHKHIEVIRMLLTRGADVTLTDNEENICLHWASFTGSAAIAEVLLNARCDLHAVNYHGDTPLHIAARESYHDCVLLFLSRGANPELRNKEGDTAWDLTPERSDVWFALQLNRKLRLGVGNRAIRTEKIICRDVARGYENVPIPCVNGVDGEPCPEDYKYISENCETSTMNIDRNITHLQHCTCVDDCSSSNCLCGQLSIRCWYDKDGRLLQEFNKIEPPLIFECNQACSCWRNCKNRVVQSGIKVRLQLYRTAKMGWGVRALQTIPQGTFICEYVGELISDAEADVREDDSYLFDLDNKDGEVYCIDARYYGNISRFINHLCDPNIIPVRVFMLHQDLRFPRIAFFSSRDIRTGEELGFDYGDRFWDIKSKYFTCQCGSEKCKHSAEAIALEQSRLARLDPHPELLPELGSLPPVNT
T1 sequence (Q9H9B1 2-1298 limits assumed): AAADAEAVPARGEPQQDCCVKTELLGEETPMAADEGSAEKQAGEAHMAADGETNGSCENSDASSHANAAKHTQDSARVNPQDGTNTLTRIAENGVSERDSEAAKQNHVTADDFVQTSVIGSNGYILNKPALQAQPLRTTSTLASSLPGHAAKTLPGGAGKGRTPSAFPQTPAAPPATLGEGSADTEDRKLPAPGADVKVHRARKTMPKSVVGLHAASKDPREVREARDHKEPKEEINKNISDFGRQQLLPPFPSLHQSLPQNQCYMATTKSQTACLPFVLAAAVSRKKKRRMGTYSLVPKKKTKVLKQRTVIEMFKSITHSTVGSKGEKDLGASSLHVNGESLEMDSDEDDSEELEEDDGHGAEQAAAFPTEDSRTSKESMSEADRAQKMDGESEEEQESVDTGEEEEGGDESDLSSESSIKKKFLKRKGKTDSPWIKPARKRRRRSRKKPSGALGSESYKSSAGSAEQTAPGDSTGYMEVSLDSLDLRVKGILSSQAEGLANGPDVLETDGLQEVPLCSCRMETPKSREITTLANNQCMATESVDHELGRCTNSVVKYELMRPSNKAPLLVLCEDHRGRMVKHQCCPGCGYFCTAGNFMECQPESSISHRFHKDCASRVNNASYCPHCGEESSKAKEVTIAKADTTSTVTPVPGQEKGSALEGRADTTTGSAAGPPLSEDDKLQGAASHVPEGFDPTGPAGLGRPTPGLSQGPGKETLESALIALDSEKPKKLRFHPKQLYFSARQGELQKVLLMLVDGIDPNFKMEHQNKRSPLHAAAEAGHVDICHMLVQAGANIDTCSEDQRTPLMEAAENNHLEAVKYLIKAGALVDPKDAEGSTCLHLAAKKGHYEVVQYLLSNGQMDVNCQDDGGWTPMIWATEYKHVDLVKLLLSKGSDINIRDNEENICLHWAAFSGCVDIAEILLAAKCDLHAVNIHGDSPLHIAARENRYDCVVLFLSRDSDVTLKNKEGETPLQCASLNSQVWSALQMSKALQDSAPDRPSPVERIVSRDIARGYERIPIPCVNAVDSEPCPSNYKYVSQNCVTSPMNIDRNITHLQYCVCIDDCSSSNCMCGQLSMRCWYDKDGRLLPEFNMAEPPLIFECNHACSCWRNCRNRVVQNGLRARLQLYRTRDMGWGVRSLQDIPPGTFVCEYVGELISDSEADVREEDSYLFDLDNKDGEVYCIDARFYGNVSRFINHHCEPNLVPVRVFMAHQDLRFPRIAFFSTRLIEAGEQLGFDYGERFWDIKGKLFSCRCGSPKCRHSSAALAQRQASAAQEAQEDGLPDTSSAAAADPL

B1: 3×MBT: three MBT repeats of L3MBTL1 (amino acids 190-530 of accession NP—056293.4), expressed as GST or Flag fusion; methyl-lysine affinity reagent (protein)
chain: EEWSSSQPATGEKKECWSWESYLEEQKAITAPVSLFQDSQAVTHNKNGFKLGMKLEGIDPQHPSMYFILTVAEVCGYRLRLHFDGYSECHDFWVNANSPDIHPAGWFEKTGHKLQPPKGYKEEEFSWSQYLRSTRAQAAPKHLFVSQSHSPPPLGFQVGMKLEAVDRMNPSLVCVASVTDVVDSRFLVHFDNWDDTYDYWCDPSSPYIHPVGWCQKQGKPLTPPQDYPDPDNFCWEKYLEETGASAVPTWAFKVRPPHSFLVNMKLEAVDRRNPALIRVASVEDVEDHRIKIHFDGWSHGYDFWIDADHPDIHPAGWCSKTGHPLQPPLGPREPSSASPGG
modifications: left off: a dimerising Fc or GST
B2: eEF1A1: protein with methylated lysine identified in 3xMBT pull-down (protein, UniProt P68104 2-462, looked up)
Elongation factor 1-alpha 1: GKEKTHINIVVIGHVDSGKSTTTGHLIYKCGGIDKRTIEKFEKEAAEMGKGSFKYAWVLDKLKAERERGITIDISLWKFETSKYYVTIIDAPGHRDFIKNMITGTSQADCAVLIVAAGVGEFEAGISKNGQTREHALLAYTLGVKQLIVGVNKMDSTEPPYSQKRYEEIVKEVSTYIKKIGYNPDTVAFVPISGWNGDNMLEPSANMPWFKGWKVTRKDGNASGTTLLEALDCILPPTRPTDKPLRLPLQDVYKIGGIGTVPVGRVETGVLKPGMVVTFAPVNVTTEVKSVEMHHEALSEALPGDNVGFNVKNVSVKDVRRGNVAGDSKNDPPMEAAGFTAQVIILNHPGQISAGYAPVLDCHTAHIACKFAELKEKIDRRSGKKLEDGPKFLKSGDAAIVDMVPGKPMCVESFSDYPPLGRFAVRDMRQTVAVGVIKAVDKKAAGAGKVTKSAQKAQKAK
modifications: methylated lysine
notes: protein with methylated lysine identified in 3xMBT pull-down
B3: DDX1: protein with methylated lysine identified in 3xMBT pull-down (protein, UniProt Q92499 1-740, looked up)
ATP-dependent RNA helicase …: MAAFSEMGVMPEIAQAVEEMDWLLPTDIQAESIPLILGGGDVLMAAETGSGKTGAFSIPVIQIVYETLKDQQEGKKGKTTIKTGASVLNKWQMNPYDRGSAFAIGSDGLCCQSREVKEWHGCRATKGLMKGKHYYEVSCHDQGLCRVGWSTMQASLDLGTDKFGFGFGGTGKKSHNKQFDNYGEEFTMHDTIGCYLDIDKGHVKFSKNGKDLGLAFEIPPHMKNQALFPACVLKNAELKFNFGEEEFKFPPKDGFVALSKAPDGYIVKSQHSGNAQVTQTKFLPNAPKALIVEPSRELAEQTLNNIKQFKKYIDNPKLRELLIIGGVAARDQLSVLENGVDIVVGTPGRLDDLVSTGKLNLSQVRFLVLDEADGLLSQGYSDFINRMHNQIPQVTSDGKRLQVIVCSATLHSFDVKKLSEKIMHFPTWVDLKGEDSVPDTVHHVVVPVNPKTDRLWERLGKSHIRTDDVHAKDNTRPGANSPEMWSEAIKILKGEYAVRAIKEHKMDQAIIFCRTKIDCDNLEQYFIQQGGGPDKKGHQFSCVCLHGDRKPHERKQNLERFKKGDVRFLICTDVAARGIDIHGVPYVINVTLPDEKQNYVHRIGRVGRAERMGLAISLVATEKEKVWYHVCSSRGKGCYNTRLKEDGGCTIWYNEMQLLSEIEEHLNCTISQVEPDIKVPVDEFDGKVTYGQKRAAGGGSYKGHVDILAPTVQELAALEKEAQTSFLHLGYLPNQLFRTF
B4: CMAS: protein with methylated lysine identified in 3xMBT pull-down (protein, UniProt Q8NFW8 1-434, looked up)
N-acylneuraminate …: MDSVEKGAATSVSNPRGRPSRGRPPKLQRNSRGGQGRGVEKPPHLAALILARGGSKGIPLKNIKHLAGVPLIGWVLRAALDSGAFQSVWVSTDHDEIENVAKQFGAQVHRRSSEVSKDSSTSLDAIIEFLNYHNEVDIVGNIQATSPCLHPTDLQKVAEMIREEGYDSVFSVVRRHQFRWSEIQKGVREVTEPLNLNPAKRPRRQDWDGELYENGSFYFAKRHLIEMGYLQGGKMAYYEMRAEHSVDIDVDIDWPIAEQRVLRYGYFGKEKLKEIKLLVCNIDGCLTNGHIYVSGDQKEIISYDVKDAIGISLLKKSGIEVRLISERACSKQTLSSLKLDCKMEVSVSDKLAVVDEWRKEMGLCWKEVAYLGNEVSDEECLKRVGLSGAPADACSTAQKAVGYICKCNGGRGAIREFAEHICLLMEKVNNSCQK

Tests used:
3×MBT domain of L3MBTL1 = assay: Triple SILAC pull-down, 3xMBT/3xMBTD355N ratio (cytoplasmic, nuclear and chromatin fractions of 293T cells); type: binding, human; conditions: for 3xMBT/D355N UNC Heavy / 3xMBT/D355N UNC Light: SILAC ratio, pull-down 3xMBT vs 3xMBTD355N; for 3xMBT/D355N UNC Heavy: experiment with UNC0638 in heavy SILAC media; for 3xMBT/D355N UNC Light: experiment with UNC0638 in light SILAC media;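 as to all read-outs here: proteins quantified with MaxQuant, requiring at least two unique peptides and quantification in both label directions, normalized to the mean of proteins from a digested loading control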
G9a and GLP = biological target: T1, G9a and GLP; assay: Triple SILAC pull-down after UNC0638 treatment of 293T cells, DMSO/UNC0638 ratio of protein captured by 3×MBT; type: cell-based; design: cells were treated for 24 hours with UNC0638 at 2.5 μM or DMSO vehicle control; endogenous in cells; host or cells: HEK 293T; conditions: for Relative to UNC0638 UNC Heavy / Relative to UNC0638 UNC Light: SILAC ratio DMSO/UNC0638 of protein pulled down with 3xMBT; for Relative to UNC0638 UNC Heavy: UNC0638 in heavy SILAC media; for Relative to UNC0638 UNC Light: UNC0638 in light SILAC media; for Relative to UNC0638 Average: average of UNC Light and UNC Heavy experiments;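 as to all read-outs here: mass spectrometry (Q-Exactive) SILAC quantitation, DMSO/UNC0638 ratio computed after subtracting 3×MBTD355N mutant pull-down background, only proteins with at least twofold 3×MBT over mutant signal considered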

Molecule | number of proteins enriched by 3×MBT compared to 3×MBTD355N (3×MBT domain of L3MBTL1; two biological replicates) | 3xMBT/D355N UNC Heavy (3×MBT domain of L3MBTL1) | 3xMBT/D355N UNC Light (3×MBT domain of L3MBTL1) | Relative to UNC0638 UNC Heavy (G9a and GLP) | Relative to UNC0638 UNC Light (G9a and GLP) | Relative to UNC0638 Average (G9a and GLP)
B1 | 370 | – | – | – | – | –
B2 | – | 3.08 log base 2 | 2.87 log base 2 | 0.27 log base 2 | 0.04 log base 2 | 0.15 log base 2
B3 | – | 3.07 log base 2 | 3.64 log base 2 | 0.02 log base 2 | 0.29 log base 2 | 0.16 log base 2
B4 | – | 2.71 log base 2 | 2.86 log base 2 | 0.22 log base 2 | 0.12 log base 2 | 0.17 log base 2
